Measured values reported in the Human Domainome abundance scans (Beltran et al. 2025).
± gives the uncertainty stated by the source.

B1: Triacylglycerol hydrolase DDHD2, residues 389 to 447; numbered along this chain, O94830 (parent)
chain: TLEEDLKKLQLSEFFDIFEKEKVDKEALALCTDRDLQEIGIPLGPRKKILNYFSTRKNS

Variants of: B1
Test: abundance fitness (aPCA) (normalised: wild type 0, dead -1); higher = more abundant; growth selection in yeast, the domain comes from the species named
Settings: Homo sapiens

| Variant | abundance fitness |
| --- | --- |
| E19M | 0.016 ± 0.1 |
| E19C | -0.161 ± 0.089 |
| E19I | 0.007 ± 0.1 |
| E19P | -0.857 ± 0.12 |
| E19L | 0.054 ± 0.062 |
| E19S | -0.054 ± 0.067 |
| E19D | 0.129 ± 0.1 |
| V23G | -0.426 ± 0.074 |
| V23Q | -0.331 ± 0.1 |
| V23C | -0.47 ± 0.14 |
| V23T | -0.231 ± 0.1 |
| V23W | 0.593 ± 0.071 |
| V23H | -0.376 ± 0.15 |
| V23F | 0.437 ± 0.11 |
| A27W | 0.841 ± 0.077 |
| A27I | -0.045 ± 0.18 |
| A27Y | 0.6 ± 0.12 |
| A27E | 0.231 ± 0.083 |
| A27G | 0.316 ± 0.065 |
| A27V | 0.047 ± 0.074 |
| A27F | 0.708 ± 0.11 |
| A27T | 0.057 ± 0.091 |
| R34M | 0.32 ± 0.092 |
| R34K | -0.087 ± 0.095 |

| Variant | abundance fitness |
| --- | --- |
| R34V | 0.072 ± 0.07 |
| R34G | 0.201 ± 0.065 |
| R34F | 0.174 ± 0.089 |
| R34S | 0.074 ± 0.061 |
| R34E | 0.463 ± 0.084 |
| R34L | -0.001 ± 0.063 |
| R34H | 0.085 ± 0.13 |
| I49Y | -0.946 ± 0.19 |
| I49R | -0.489 ± 0.076 |
| I49N | -0.589 ± 0.14 |
| I49F | -0.765 ± 0.16 |
| I49L | -0.077 ± 0.069 |
| I49G | -0.593 ± 0.081 |
| I49P | -0.34 ± 0.11 |
| I49Q | -0.307 ± 0.11 |
| I49C | -0.33 ± 0.097 |
| I39S | -0.364 ± 0.078 |
| I39D | -0.3 ± 0.12 |
| I39G | -0.261 ± 0.079 |
| I39R | -0.008 ± 0.065 |
| I39Q | -0.146 ± 0.086 |
| I39W | 0.613 ± 0.072 |
| L43N | 0.295 ± 0.055 |
| L43C | 0.47 ± 0.056 |

| Variant | abundance fitness |
| --- | --- |
| L43I | 0.496 ± 0.057 |
| L43Y | 0.473 ± 0.053 |
| S54P | -0.309 ± 0.1 |
| S54M | 0.17 ± 0.08 |
| S54V | -0.409 ± 0.068 |
| S54C | -0.285 ± 0.1 |
| E26L | -0.383 ± 0.071 |
| E26A | -0.052 ± 0.086 |
| E26D | 0.002 ± 0.12 |
| E26Q | -0.107 ± 0.1 |
| E26R | 0.137 ± 0.064 |
| I17V | 0.128 ± 0.34 |
| Q37I | 0.086 ± 0.1 |
| Q37G | 0.049 ± 0.064 |
| Q37E | 0.241 ± 0.097 |
| Q37V | -0.048 ± 0.067 |
| L36E | -0.363 ± 0.1 |
| L36D | -0.565 ± 0.13 |
| L36H | -0.352 ± 0.17 |
| D16F | 0.015 ± 0.13 |
| D16I | -0.156 ± 0.15 |
| D16V | -0.096 ± 0.05 |
| D16N | -0.025 ± 0.15 |
| D16H | -0.033 ± 0.11 |

| Variant | abundance fitness |
| --- | --- |
| E4W | -0.811 ± 0.081 |
| E4R | -0.493 ± 0.056 |
| E4Y | -0.777 ± 0.12 |
| E4V | -0.629 ± 0.072 |
| E4I | -0.432 ± 0.12 |
| E4T | -0.589 ± 0.081 |
| E4D | -0.205 ± 0.1 |
| E4G | -0.436 ± 0.074 |
| E4N | -0.341 ± 0.12 |
| D33C | -0.675 ± 0.14 |
| D33V | -0.693 ± 0.083 |
| D33M | 0.124 ± 0.095 |
| D33S | -0.235 ± 0.07 |
| D33E | -0.058 ± 0.099 |
| Q10R | -0.247 ± 0.052 |
| Q10D | 0.069 ± 0.099 |
| Q10F | -0.421 ± 0.13 |
| Q10C | -0.101 ± 0.078 |
| Q10V | -0.667 ± 0.055 |
| Q10A | -0.22 ± 0.05 |
| Q10L | -0.52 ± 0.059 |
| T55K | 0.178 ± 0.096 |
| T55P | -0.079 ± 0.1 |
| T55I | 0.122 ± 0.11 |

| Variant | abundance fitness |
| --- | --- |
| T55Q | 0.006 ± 0.11 |
| T55D | -0.067 ± 0.086 |
| T55N | 0.166 ± 0.12 |
| T55A | 0.058 ± 0.067 |
| T55E | 0.214 ± 0.081 |
| P45N | -0.274 ± 0.08 |
| P45M | 0.019 ± 0.11 |
| P45H | -0.261 ± 0.094 |
| P45A | 0.615 ± 0.067 |
| P45C | -0.205 ± 0.085 |
| P45D | 0.017 ± 0.076 |
| R56E | 0.123 ± 0.082 |
| R56A | 0.134 ± 0.069 |
| R56Q | 0.143 ± 0.11 |
| R56K | -0.143 ± 0.14 |
| K57H | -0.291 ± 0.18 |
| K57A | -0.102 ± 0.069 |
| K57T | -0.155 ± 0.09 |
| K57G | -0.031 ± 0.061 |
| K57N | -0.287 ± 0.15 |
| K57F | -0.224 ± 0.14 |
| K57Y | -0.244 ± 0.14 |
| K47Y | -0.524 ± 0.18 |
| K47P | -0.627 ± 0.12 |

| Variant | abundance fitness |
| --- | --- |
| K47I | 0.193 ± 0.11 |
| K47H | -0.376 ± 0.11 |
| K47C | 0.136 ± 0.081 |
| K47A | 0.296 ± 0.067 |
| K47L | -0.087 ± 0.071 |
| L2W | -0.52 ± 0.082 |
| L2E | -0.2 ± 0.086 |
| L2A | -0.609 ± 0.07 |
| F53L | -0.324 ± 0.078 |
| F53Y | -0.027 ± 0.14 |
| F53H | -0.285 ± 0.13 |
| D24M | -0.286 ± 0.13 |
| D24W | -0.888 ± 0.2 |
| D24F | -0.033 ± 0.13 |
| D24T | 0.494 ± 0.11 |
| D24L | -0.881 ± 0.13 |
| D24N | 0.155 ± 0.12 |
| L11C | -0.462 ± 0.088 |
| L11G | -1.22 ± 0.095 |
| L11M | -0.125 ± 0.058 |
| L11S | -0.969 ± 0.072 |
| L11K | -1.14 ± 0.15 |
| L11V | -0.401 ± 0.053 |
| L11P | -1 ± 0.089 |

| Variant | abundance fitness |
| --- | --- |
| P42R | -0.872 ± 0.082 |
| P42F | -1.17 ± 0.32 |
| P42L | -0.958 ± 0.084 |
| P42A | -0.518 ± 0.081 |
| P42V | -1.01 ± 0.098 |
| L50T | -0.209 ± 0.092 |
| L50Q | -0.345 ± 0.11 |
| L50G | -0.291 ± 0.061 |
| L50F | -0.008 ± 0.15 |
| L50M | -0.209 ± 0.1 |
| L50R | -0.247 ± 0.06 |
| F18S | -0.445 ± 0.081 |
| F18Y | -0.293 ± 0.12 |
| F18R | -0.685 ± 0.085 |
| F18Q | -0.31 ± 0.15 |
| N58F | -0.422 ± 0.17 |
| N58V | -0.015 ± 0.078 |
| N58Q | -0.236 ± 0.12 |
| N58W | -0.373 ± 0.14 |
| N58T | -0.049 ± 0.11 |
| N58R | -0.332 ± 0.074 |
| S12I | -0.012 ± 0.083 |
| S12D | 0.037 ± 0.074 |
